Source: patent publication US20250049953A1, “TREATMENT AND METHOD FOR INHIBITING LATE NA CURRENT” (THE TRUSTEES OF COLUMBIA UNIVERSITY IN THE CITY OF NEW YORK, priority 2022, published 2025)

What was measured:
HEK293 cells = type: in vitro ADME; settings: 10 μM
Procedure: The peptide encoding FixR-cpp was chemically synthesized by Genscript (98% purity) to contain the cell permeating viral TAT sequence in the amino-terminus: […] (SEQ ID NO. 2). The amino terminus of the peptide contained a FITC fluorophore to visualize cell uptake. The peptide was resuspended in DMSO. Flow cytometric assays were performed to quantify FixR cellular uptake in both HEK293 cells and freshly dissociated aMVM. HEK293 cells were cultured in 12 well plates and incubated with different concentrations of FixR-cpp for 2 hours and stained for cell death detection using LIVE/DEAD™ Fixable Far Red Dead Cell Stain Kit (ThermoFisher Scientific, L10120). Similarly, non-TG and IQ/AA^tg freshly dissociated aMVM were incubated with various concentrations of FixR-cpp for 2 hours in Tyrode's solution (138 mM NaCl, 4 mM KCl, 1 mM MgCl2, 10 mM HEPES (pH 7.4 using NaOH), 0.2 mM NaHPO4 5 mM D-glucose, 1 mM CaCl2). For cellular uptake measurements, we utilized an LSR II (BD Biosciences) flow cytometer equipped with 405 nm, 488 nm, and 633 nm lasers for excitation and 18 different emission channels. Forward and side scatter signals were detected and used to gate for single and healthy cells. […] Histograms from the Fluorescein 5(6)-isothiocyanate (FITC) and Allophycocyanin (APC) channels for the single-cell population were obtained and analyzed using FlowJo (version X, FlowJo LLC).

NaV1.5 E1784K = target: T1, NaV1.5 E1784K (Homo sapiens, UniProt Q14524, E1784K); assay: Multichannel recordings of late Na current, NaV1.5 E1784K; type: cell-based; settings: co-expression
T1 construct: expressed in transfected cells; host or cells: HEK293 (ATCC CRL1573)
Excerpt: The human NaV1.5 channel corresponds to clone M77235.1 (GenBank) and is subcloned into pGW 1 vector with HindIII and SaII. To facilitate construction of channelopathic mutations in the channel carboxy-terminus, we introduced silent mutations into NaV1.5 to introduce an NruI cutting site near the channel carboxy-terminus (5329-gtggccacg-5337 into 5329-gtCgcGacg-5337). Subsequently, we used overlap-extension PCR and ligated the PCR product into NaV1.5/pGW1 using NruI and XbaI restriction sites (mutations: E1784K, S1904L, IQ/AA, and Q1909R). For generating the ΔKPQ and IFM/IQM mutations, we used overlap-extension PCR and ligated in NaV1.5/pGW1 following restriction digest using KpnI and XbaI site. For generation of NaV1.5 truncations, we PCR amplified relevant segments using a forward primer upstream of the KpnI site and a reverse primer that truncated at the appropriate location (Δ1810 and Δ1885) and included an XbaI site and ligated into NaV1.5/pW1 vector. For LILA/WICW mutations, we used overlap extension and used restriction site AgeI and NheI for subsequent ligation. All segments subjected to PCR amplification were verified by sequencing. For generating human FHF2 splice-variants, we synthesized gene fragments and ligated into pcDNA3 using BamHI/EcoRI restriction sites. Human FHF1A and FHF1B were subcloned into ECFP-N3 vector, FHF2 splice variants and FHF3 were subcloned into pcDNA3. […]

| Substance | cells showing increased fluorescence compared to background (HEK293 cells; 2 hours of incubation, FITC-tagged) [%] | enhancement in fluorescence intensity (HEK293 cells; 2 hours, flow-cytometry) [fold] | change in INa,L (NaV1.5 E1784K) |
| --- | --- | --- | --- |
| FixR-cpp: FixR fused to HIV-1 TAT transduction domain, YGRKKRRQRRRAAAIASSLIRQKRQARESNSERVSASKRRSSPSKG (SEQ ID NO: 2) | ~90 | ~100 |  |
| FixR: minimal 39-amino-acid FHF1A amino-terminal effector domain, MAAAIASSLIRQKRQARESNSDRVSASKRRSSPSKDGRS (SEQ ID NO: 4), expressed as peptide |  |  | inhibits INa,L |
